Data: article PMC13376610, “Nanobody-mediated control of long RSH Rel and RelA catalysis by restriction of their conformational landscape” (Nature Communications, 2026)
Where two headings read alike, the source gives them in different places. Each block holds one molecule with its values, some of them ahead of it.

Assays:
[1] = target: T1, RelCt^NTD (Chlorobaculum tepidum, UniProt Q8KC80); test: ITC; assay type: binding; details: 15 °C, pH 7.5, 10 mM MgCl2, no nanobody; SYNTH active site; non-hydrolysable ATP analogue; also crystal structure with GDP (2.65 Å)
T1 construct: gene relA; N-terminal catalytic region (HD + SYNTH domains), C-terminal regulatory domains removed; N-terminal His-TEV tag cleaved; recombinant, gene from GenScript
T1 sequence (Q8KC80 1-390 limits assumed): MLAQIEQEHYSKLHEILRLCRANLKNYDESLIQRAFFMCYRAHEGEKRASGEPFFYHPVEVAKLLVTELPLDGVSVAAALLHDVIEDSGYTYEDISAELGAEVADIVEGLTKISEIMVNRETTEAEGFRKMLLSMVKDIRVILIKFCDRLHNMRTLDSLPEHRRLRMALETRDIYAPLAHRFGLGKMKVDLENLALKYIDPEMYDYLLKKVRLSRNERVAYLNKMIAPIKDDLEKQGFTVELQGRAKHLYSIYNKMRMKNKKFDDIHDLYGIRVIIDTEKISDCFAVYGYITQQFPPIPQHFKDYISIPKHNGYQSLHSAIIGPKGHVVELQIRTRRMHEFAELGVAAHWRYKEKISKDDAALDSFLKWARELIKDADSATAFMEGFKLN

[2] = target: T2, full-length E. coli RelA (Escherichia coli (K-12 entry), UniProt P0AG20); test: ITC; nanobody titrated into the RSH enzyme in the cell; Affinity-ITC, 15 °C, 2 μL injections, stirring 75 r.p.m., triplicate; mean KD ± SD; details: both partners purified
T2 construct: RelA, long RSH (p)ppGpp synthetase, Escherichia coli, full length; also called RelAEc; source: construct generated by GenScript

[3] = target: T3, full-length Rel from Chlorobaculum tepidum (Chlorobaculum tepidum TLS, UniProt Q8KC80); test: cell-based or functional assay
[4] = target: T4, RelCt^NTD, N-terminal catalytic region of C. tepidum Rel (Chlorobaculum tepidum); test: ITC
T4 chain: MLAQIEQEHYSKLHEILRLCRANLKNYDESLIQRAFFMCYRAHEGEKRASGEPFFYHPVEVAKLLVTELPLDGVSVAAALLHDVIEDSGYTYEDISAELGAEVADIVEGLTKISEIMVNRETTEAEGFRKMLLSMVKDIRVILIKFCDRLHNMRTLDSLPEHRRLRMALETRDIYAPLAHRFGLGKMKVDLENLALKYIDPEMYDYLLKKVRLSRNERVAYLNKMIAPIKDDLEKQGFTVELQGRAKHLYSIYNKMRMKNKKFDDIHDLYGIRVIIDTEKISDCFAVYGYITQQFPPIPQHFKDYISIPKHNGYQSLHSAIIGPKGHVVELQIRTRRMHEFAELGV

[5] = target: T3, full-length Rel from Chlorobaculum …; test: ITC; nanobody titrated into the RSH enzyme in the cell; Affinity-ITC, 15 °C, 2 μL injections, stirring 75 r.p.m., triplicate; mean KD ± SD; details: both partners purified
[6] = target: T5, RelCt^D283A (Chlorobaculum tepidum); test: ITC
T5 chain: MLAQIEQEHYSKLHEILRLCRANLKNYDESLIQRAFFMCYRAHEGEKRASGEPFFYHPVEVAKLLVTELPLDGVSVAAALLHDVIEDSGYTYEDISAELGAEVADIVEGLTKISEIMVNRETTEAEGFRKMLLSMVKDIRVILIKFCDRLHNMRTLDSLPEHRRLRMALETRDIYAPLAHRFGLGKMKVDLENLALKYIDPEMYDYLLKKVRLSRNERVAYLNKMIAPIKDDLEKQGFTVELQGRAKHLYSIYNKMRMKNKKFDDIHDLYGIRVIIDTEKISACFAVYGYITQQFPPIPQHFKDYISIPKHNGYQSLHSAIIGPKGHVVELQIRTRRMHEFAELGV

[7] = target: T6, RelCt^K280A (Chlorobaculum tepidum); test: ITC
T6 chain: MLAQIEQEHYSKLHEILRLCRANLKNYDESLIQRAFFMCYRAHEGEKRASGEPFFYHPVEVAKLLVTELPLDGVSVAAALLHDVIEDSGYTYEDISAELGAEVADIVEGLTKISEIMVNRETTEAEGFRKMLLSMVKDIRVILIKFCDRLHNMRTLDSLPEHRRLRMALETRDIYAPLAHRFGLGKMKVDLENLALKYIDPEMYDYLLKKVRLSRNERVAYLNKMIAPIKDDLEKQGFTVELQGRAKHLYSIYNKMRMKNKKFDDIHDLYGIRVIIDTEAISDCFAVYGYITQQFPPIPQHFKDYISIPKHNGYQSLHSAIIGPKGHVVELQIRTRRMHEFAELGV

[8] = target: T7, RelCt^Y290A (Chlorobaculum tepidum); test: ITC
T7 chain: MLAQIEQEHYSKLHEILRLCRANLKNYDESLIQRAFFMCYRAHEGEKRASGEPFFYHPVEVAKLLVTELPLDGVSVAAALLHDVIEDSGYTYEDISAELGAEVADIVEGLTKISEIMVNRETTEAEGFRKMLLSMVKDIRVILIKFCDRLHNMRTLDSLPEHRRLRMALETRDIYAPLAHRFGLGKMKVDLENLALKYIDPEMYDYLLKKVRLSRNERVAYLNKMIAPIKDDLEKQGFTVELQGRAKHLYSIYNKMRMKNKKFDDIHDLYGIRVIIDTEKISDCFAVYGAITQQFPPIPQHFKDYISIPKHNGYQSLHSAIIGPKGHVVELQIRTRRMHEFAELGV

[9] = target: T8, RelCt^A286K (Chlorobaculum tepidum); test: ITC
T8 chain: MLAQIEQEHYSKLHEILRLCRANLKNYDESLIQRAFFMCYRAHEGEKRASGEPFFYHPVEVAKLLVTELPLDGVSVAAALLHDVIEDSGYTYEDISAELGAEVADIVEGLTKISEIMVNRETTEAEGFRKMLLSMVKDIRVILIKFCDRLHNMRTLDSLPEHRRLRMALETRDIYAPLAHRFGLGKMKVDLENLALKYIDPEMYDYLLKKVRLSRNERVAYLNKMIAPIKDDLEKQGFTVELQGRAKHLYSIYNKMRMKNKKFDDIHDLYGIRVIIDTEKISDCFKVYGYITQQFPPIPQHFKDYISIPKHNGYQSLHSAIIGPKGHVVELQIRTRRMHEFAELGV

[10] = target: T5, RelCt^D283A; test: ITC
[11] = target: RelCt^R215E (Chlorobaculum tepidum); test: ITC; nanobody titrated into the RSH enzyme in the cell; Affinity-ITC, 15 °C, 2 μL injections, stirring 75 r.p.m., triplicate; mean KD ± SD
[12] = target: T9, RelCt^NTD, N-terminal catalytic region of C. tepidum Rel (Chlorobaculum tepidum TLS); test: HDX-MS; RelCt^NTD alone against its complex with the nanobody, 50 to 70 μM; labelling 0.5, 5 or 60 min at 20 °C in 50 mM HEPES, 500 mM KCl, 500 mM NaCl, 2 mM MgCl2, 1 mM TCEP, 0.002% mellitic acid (pD 7.5); triplicate; details: both partners purified
T9 construct: Rel, Chlorobaculum tepidum, N-terminal catalytic region (HD and SYNTH domains); His-TEV tag removed with TEV protease; source: recombinant, purified (HisTrap, SEC, TEV cleavage, reverse IMAC, SEC); construct generated by GenScript; not shown: His tag, N-terminal, cleaved
T9 chain: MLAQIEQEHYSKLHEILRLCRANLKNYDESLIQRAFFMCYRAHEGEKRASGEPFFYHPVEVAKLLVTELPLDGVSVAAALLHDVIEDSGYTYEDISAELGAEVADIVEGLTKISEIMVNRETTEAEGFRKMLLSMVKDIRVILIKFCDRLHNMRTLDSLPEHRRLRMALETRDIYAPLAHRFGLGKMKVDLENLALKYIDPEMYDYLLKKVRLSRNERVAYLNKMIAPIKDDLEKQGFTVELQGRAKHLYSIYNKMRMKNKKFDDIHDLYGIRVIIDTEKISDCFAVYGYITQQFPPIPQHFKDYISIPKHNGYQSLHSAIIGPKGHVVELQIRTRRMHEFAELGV

T2 sequence (P0AG20 whole entry): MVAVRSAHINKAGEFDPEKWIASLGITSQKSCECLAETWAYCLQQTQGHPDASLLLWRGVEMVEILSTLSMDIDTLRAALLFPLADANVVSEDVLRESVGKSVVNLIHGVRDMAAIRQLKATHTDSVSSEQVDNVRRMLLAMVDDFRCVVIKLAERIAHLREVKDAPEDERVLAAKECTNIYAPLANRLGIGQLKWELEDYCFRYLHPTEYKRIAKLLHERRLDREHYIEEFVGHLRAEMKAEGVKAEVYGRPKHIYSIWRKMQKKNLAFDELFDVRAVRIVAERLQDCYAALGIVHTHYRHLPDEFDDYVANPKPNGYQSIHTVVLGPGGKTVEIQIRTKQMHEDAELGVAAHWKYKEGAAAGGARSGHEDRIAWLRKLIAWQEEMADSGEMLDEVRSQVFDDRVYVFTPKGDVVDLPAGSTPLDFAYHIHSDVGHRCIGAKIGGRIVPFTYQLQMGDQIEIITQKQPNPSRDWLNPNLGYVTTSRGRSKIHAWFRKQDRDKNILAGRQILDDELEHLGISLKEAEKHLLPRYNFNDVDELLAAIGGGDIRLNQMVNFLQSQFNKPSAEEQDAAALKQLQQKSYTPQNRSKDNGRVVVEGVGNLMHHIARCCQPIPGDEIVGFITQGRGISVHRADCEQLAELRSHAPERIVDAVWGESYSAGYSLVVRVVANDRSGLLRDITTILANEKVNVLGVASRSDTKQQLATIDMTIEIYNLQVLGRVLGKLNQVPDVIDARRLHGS

Molecule: Nc1ncnc2c1ncn2[C@@H]1O[C@H](COP(=O)(O)CP(=O)(O)OP(=O)(O)O)[C@@H](O)[C@H]1O [APCPP]
Kd [1]: 37.9 µM

B1: Nb96 (VHH)
VHH: QVQLQESGGGLVQAGGSLRLSCAASGSIFDIKVMAWYRQAPGKSRELVAVHASADDSTTYEKSVKGRFTISRDNAKNTVYLQMNSLKPEDTAIYYCNRIPNFTHWGQGTQVTVS
notes: llama nanobody selected against E. coli RelA; Expressed from the pMESy4 plasmid; also called nanobody 96; source: E. coli WK6, periplasmic extraction, purified (Ni-NTA IMAC, SEC)
Kd [2]: 80 nM

B6: Nb94 (VHH)
VHH: QVQLVESGGGMVQPGGSLRLSCAASGFTFSTYSMGWFRQAPGQEREFVAAISWSGDSAYYADSVKGRFTISRDNAKNTVYLQMNSLKFEDTAVYYCNADLDGLGYDYWGQGTQVTVS
notes: llama nanobody selected against E. coli RelA; Expressed from the pMESy4 plasmid; also called nanobody 94; source: E. coli WK6, periplasmic extraction, purified (Ni-NTA IMAC, SEC)
Kd [2]: 13 nM

Results, then the molecule that gave them:

SYNTH activity (turnover of ppGpp synthesis) of RelCt in the presence of Nb898, HPLC [3]: ~11 fold | Kd [4]: 190 nM | Kd [5]: 186 nM
B2: Nb898 (VHH)
VHH: QVQLQESGGGLVQAGGSLRLSCAASGSIESINAMAWYRQAPGKPRELVAVIAKSDGSTTYAVPVKGRFTISRDDAKNTVYLQMNSLKPEDTAIYYCNKIPNFTYWGQGTQVTVSS
notes: llama nanobody selected against C. tepidum Rel; Expressed from the pMESy4 plasmid; source: E. coli WK6, periplasmic extraction, purified (Ni-NTA IMAC, SEC)

Kd [6]: 201 nM | Kd [7]: 2200 nM | Kd [8]: 1100 nM | Kd [9]: 12 µM | Kd [10]: 200 nM
B3: Nb898 (VHH)
VHH: QVQLQESGGGLVQAGGSLRLSCAASGSIESINAMAWYRQAPGKPRELVAVIAKSDGSTTYAVPVKGRFTISRDDAKNTVYLQMNSLKPEDTAIYYCNKIPNFTYWGQGTQVTVSS
modifications: form not printed for this variant; NTD taken because the methods purify 'RelCtNTD and variants' (full length possible); limits from 9S6K entity

binding result [2]: no binding
B4: Nb120 (VHH)
VHH: QVQLVESGGGLVQPGGSLRLSCAASGTIRSLNAMAWYRQAPGKERELAARISSGGTTTYADSVKGRFTISRDNAKNTLYLQMNSLKPEDTAVYYCKANRFSTYGYRDDIWGQGTQVTVS
notes: control nanobody selected against a different target; also called control Nb120; source: E. coli WK6, periplasmic extraction, purified (Ni-NTA IMAC, SEC)

HD (ppGpp hydrolase) activity of RelCt in the presence of Nb585, HPLC [3]: 2 fold | fold drop in affinity against unsubstituted RelCt [11]: 28 fold | Kd [5]: 21 nM | binding result [12]: binds
B5: Nb585 (VHH)
VHH: QVQLQESGGGLVQAGGSLRLSCAASGFTFEDYTIGWFRQAPGKEREGVSLISNSDGFTSYADSVKGQFTISSENAKNTVYLQMDNLKPEDTAVYYCAATEVLAHLMWRPSNWGYWGQGTQVTV
notes: llama nanobody selected against C. tepidum Rel; Expressed from the pMESy4 plasmid; also called nanobody 585; source: E. coli WK6, periplasmic extraction, purified (Ni-NTA IMAC, SEC)
